Numbered stars: 1 amine (or outer) side, 2 acyl side, 3 side chain; on linkers, the order of the positions; unused ones are H or OH. * marks the point of attachment. C20 diacid = O=C(O)CCCCCCCCCCCCCCCCCCC(=O)*; γGlu = O=C(O)[C@H](CCC(=O)[*:2])N[*:1]; AEEA = NCCOCCOCC(=O)O
Key:
[1] = target: T1, human calcitonin receptor (human, UniProt P30988 25-474); experiment: SPA competition vs 125I-calcitonin, membranes with human CTR (Assay VII)
T1 construct: whole, on cells; Assay VII: membranes on SPA beads; also called hCT-R; hCTR
T1 sequence (looked up): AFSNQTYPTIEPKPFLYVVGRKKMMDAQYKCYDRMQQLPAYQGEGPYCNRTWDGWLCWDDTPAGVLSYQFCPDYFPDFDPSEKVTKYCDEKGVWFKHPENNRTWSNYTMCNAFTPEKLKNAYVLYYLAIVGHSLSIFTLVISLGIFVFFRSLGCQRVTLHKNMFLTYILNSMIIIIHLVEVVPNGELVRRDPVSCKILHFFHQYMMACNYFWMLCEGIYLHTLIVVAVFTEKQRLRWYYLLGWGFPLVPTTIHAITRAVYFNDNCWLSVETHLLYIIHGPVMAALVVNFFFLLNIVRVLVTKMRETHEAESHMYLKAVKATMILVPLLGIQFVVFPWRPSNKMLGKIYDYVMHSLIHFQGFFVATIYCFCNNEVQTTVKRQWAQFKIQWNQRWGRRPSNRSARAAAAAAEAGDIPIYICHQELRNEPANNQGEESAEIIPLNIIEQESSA
Protocol: The binding assay was performed using scintillation proximity assay (SPA) beads (RPNQ0001) from PerkinElmer® and cell membranes prepared from a BHK tk'ts 13 cell line was stably transfected with the human calcitonin receptor and a CRE-responsive luciferase reporter gene. Membranes were prepared in the following way; the cells were rinsed with PBS and incubated with Versene for approximately 5 min before harvesting. The cells were flushed with PBS and the cell-suspension was centrifuged for 5 min at 1000 rpm.
(§1) EDTA (pH 7.4, buffer 2). The resulting pellet was resuspended in buffer 2 and protein concentration was tested (BCA protein Assay, Pierce). The homogenate was kept cold during the whole procedure. The membranes were kept at −80° C. until use. Assay was performed in a 384 well Optiplate (PerkinElmer®) in a total volume of 40 ul. Membranes were mixed with SPA beads. Final concentration of membranes 35 ng/μL final and Final concentration of SPA beads was 0.05 mg/well. Test-compounds were dissolved in DMSO and further diluted in assay buffer (50 mM Hepes, pH 7.4, 1 mM CaCl2, 5 mM MgCl2, 0.1% OA and 0.02% Tween20). […] Samples were analyzed on TopCounter™ (Packard). The IC₅₀ was calculated using (one site binding competition analysis) GraphPad Prism5 as a measure of receptor affinity.

[2] = target: T2, human amylin receptor (amylin 3(a) receptor: human calcitonin receptor with RAMP-3) (human, UniProt P30988 25-474; O60896 24-148, limits assumed); experiment: SPA competition vs 125I-rat amylin, membranes with human CTR + RAMP-3 (Assay V)
T2 construct: whole, on cells; Assay V: membranes of the Amylin 3(a)/CRE-luc BHK cells on SPA beads; also called hAmylin-R
T2 sequence (looked up) 1: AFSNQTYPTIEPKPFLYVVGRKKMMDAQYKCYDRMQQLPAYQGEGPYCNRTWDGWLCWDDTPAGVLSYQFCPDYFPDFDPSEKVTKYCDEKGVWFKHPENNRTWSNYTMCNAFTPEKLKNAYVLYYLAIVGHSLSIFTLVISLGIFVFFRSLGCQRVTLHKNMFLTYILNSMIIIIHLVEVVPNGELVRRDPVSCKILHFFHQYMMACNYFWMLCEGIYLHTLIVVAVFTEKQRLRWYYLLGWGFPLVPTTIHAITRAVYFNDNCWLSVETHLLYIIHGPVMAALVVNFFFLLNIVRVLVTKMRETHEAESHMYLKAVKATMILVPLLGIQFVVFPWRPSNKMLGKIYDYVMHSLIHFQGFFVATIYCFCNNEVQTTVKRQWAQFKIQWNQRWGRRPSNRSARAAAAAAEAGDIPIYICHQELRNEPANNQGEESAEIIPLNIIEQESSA
T2 sequence (looked up) 2: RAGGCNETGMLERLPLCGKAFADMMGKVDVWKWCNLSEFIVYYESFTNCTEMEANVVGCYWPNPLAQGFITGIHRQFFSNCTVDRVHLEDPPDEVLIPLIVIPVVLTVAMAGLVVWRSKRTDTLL
Protocol: as §1, with “The binding assay was performed using scintillation proximity assay (SPA) beads (RPNQ0001) from PerkinElmer and cell membranes from the Amylin 3(a)/CRE-luc cells (as described in Assay (II)) were used. Membranes were prepared in the following way; the cells were rinsed with PBS and incubated with Versene for approximately 5 min before harvesting. The cells were flushed with PBS and the cell-suspension was centrifuged for 5 min at 1000 rpm. […] The” for “EDTA (pH 7.4, buffer 2). The”, “use. The assay” for “use. Assay”, “Optiplate (PerkinElmer)” for “Optiplate (PerkinElmer®)”, “and” for “and Final concentration of”

| IC50 [1] [nM] | IC50 [2] [nM] | Binder |
| --- | --- | --- |
| 0.085 | 0.141 | {C20 diacid-γGlu-AEEA}-ASELSTAALGRLSAELHELATLPRTETGSGSP-NH2 (mimylin derivative; des1 = residue 1 deleted; also called Ex. #41; 41) [[N-terminal(C20 diacid-gGlu-OEG), des1, 30S, 31G]mimylin] |
| 0.1 | 0.171 | {C20 diacid-γGlu}-ASELSTASLGRLSAELHELSTYPRTETGSGSY-NH2 (SMILES CC(C)C[C@H](NC(=O)[C@H](CO)NC(=O)[C@H](C)NC(=O)[C@@H](NC(=O)[C@H](CO)NC(=O)[C@H](CC(C)C)NC(=O)[C@H](CCC(=O)O)NC(=O)[C@H](CO)NC(=O)[C@H](C)NC(=O)CC[C@H](NC(=O)CCCCCCCCCCCCCCCCCCC(=O)O)C(=O)O)[C@@H](C)O)C(=O)NCC(=O)N[C@@H](CCCNC(=N)N)C(=O)N[C@@H](CC(C)C)C(=O)N[C@@H](CO)C(=O)N[C@@H](C)C(=O)N[C@@H](CCC(=O)O)C(=O)N[C@@H](CC(C)C)C(=O)N[C@@H](Cc1c[nH]cn1)C(=O)N[C@@H](CCC(=O)O)C(=O)N[C@@H](CC(C)C)C(=O)N[C@@H](CO)C(=O)N[C@H](C(=O)N[C@@H](Cc1ccc(O)cc1)C(=O)N1CCC[C@H]1C(=O)N[C@@H](CCCNC(=N)N)C(=O)N[C@H](C(=O)N[C@@H](CCC(=O)O)C(=O)N[C@H](C(=O)NCC(=O)N[C@@H](CO)C(=O)NCC(=O)N[C@@H](CO)C(=O)N[C@@H](Cc1ccc(O)cc1)C(N)=O)[C@@H](C)O)[C@@H](C)O)[C@@H](C)O, mimylin derivative; des1 = residue 1 deleted; also called Ex. #100; 100) [[N-terminal(C20 diacid-gGlu), des1, 9S, 21S, 23Y, 30S, 31G, 33Y]mimylin] |
| 0.154 | 0.159 | {C20 diacid-γGlu}-ASELSTATLGRLSAELHELSTYPRTETGSGSY-NH2 (SMILES CC(C)C[C@H](NC(=O)[C@H](CCCNC(=N)N)NC(=O)CNC(=O)[C@H](CC(C)C)NC(=O)[C@@H](NC(=O)[C@H](C)NC(=O)[C@@H](NC(=O)[C@H](CO)NC(=O)[C@H](CC(C)C)NC(=O)[C@H](CCC(=O)O)NC(=O)[C@H](CO)NC(=O)[C@H](C)NC(=O)CC[C@H](NC(=O)CCCCCCCCCCCCCCCCCCC(=O)O)C(=O)O)[C@@H](C)O)[C@@H](C)O)C(=O)N[C@@H](CO)C(=O)N[C@@H](C)C(=O)N[C@@H](CCC(=O)O)C(=O)N[C@@H](CC(C)C)C(=O)N[C@@H](Cc1c[nH]cn1)C(=O)N[C@@H](CCC(=O)O)C(=O)N[C@@H](CC(C)C)C(=O)N[C@@H](CO)C(=O)N[C@H](C(=O)N[C@@H](Cc1ccc(O)cc1)C(=O)N1CCC[C@H]1C(=O)N[C@@H](CCCNC(=N)N)C(=O)N[C@H](C(=O)N[C@@H](CCC(=O)O)C(=O)N[C@H](C(=O)NCC(=O)N[C@@H](CO)C(=O)NCC(=O)N[C@@H](CO)C(=O)N[C@@H](Cc1ccc(O)cc1)C(N)=O)[C@@H](C)O)[C@@H](C)O)[C@@H](C)O, mimylin derivative; des1 = residue 1 deleted; also called Ex. #99; 99) [[N-terminal(C20 diacid-gGlu), des1, 9T, 21S, 23Y, 30S, 31G, 33Y]mimylin] |
| 0.097 | 0.565 | {C20 diacid-γGlu}-ASELSTAALGHLSAELHELATLPRTETGSGSP-NH2 (mimylin derivative; also called Ex. #72; 72) [[N-terminal(C20 diacid-gGlu), des1, 12H, 30S, 31G]mimylin] |
